Assay results from US20170267761A1.

Molecular target: Sortilin SORTECD_HIS (human) (UniProt Q99523)
Test: HTRF, displacement of PGRN from His-tagged Sortilin ECD

Sortilin SORTECD_HIS (human), sequence (Q99523 other isoform, or with tags, fused parts or gaps limits assumed): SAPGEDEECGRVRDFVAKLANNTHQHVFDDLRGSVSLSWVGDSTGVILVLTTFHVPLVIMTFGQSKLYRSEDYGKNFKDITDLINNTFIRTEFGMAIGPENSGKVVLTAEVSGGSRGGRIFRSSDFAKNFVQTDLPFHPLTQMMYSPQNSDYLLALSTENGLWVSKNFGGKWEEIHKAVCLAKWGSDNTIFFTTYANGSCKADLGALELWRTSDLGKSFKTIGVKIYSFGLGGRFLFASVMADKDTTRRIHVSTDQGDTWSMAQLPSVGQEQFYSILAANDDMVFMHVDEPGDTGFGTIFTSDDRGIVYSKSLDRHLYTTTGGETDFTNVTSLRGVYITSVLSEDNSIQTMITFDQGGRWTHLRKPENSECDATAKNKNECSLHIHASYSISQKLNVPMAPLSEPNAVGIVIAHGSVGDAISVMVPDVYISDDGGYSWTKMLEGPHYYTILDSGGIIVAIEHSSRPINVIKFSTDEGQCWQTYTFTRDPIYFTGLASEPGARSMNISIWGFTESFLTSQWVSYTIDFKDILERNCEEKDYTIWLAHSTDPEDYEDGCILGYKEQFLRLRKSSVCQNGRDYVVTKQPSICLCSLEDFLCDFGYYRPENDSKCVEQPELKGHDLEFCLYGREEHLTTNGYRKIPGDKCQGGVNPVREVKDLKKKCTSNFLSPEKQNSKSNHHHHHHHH

% inh highest conc: 37% | % inhibition at 1 µM: 37%
Substance: IgG1-b12 (antibody)
